From patent US7354588B1, “Functional derivatives of ICAM-1 with altered ability to bind LFA-1 or HRV” (Dana Farber Cancer Institute, priority 1987, dated 2008)
“Also recorded” adds a separate entry of the source.

Key:
HRV14 = experiment: Binding of [^35S]-Met labeled HRV14 to COS cells expressing ICAM-1 mutants; format: cell-based, human rhinovirus 14; details: for HRV Binding %: 35S met-labeled HRV14 binding to COS cells expressing ICAM-1 mutant, normalized for percent of cells expressing mutant and for wild type binding, mean
CL203 mAb = experiment: Indirect immunofluorescence flow cytofluorometry: mAb CL203 binding to COS cells expressing ICAM-1 mutants (SLFI, % WT); format: cell-based; details: SLFI of CL203 for mutant normalized to wild type CL203 SLFI; level of expression
Procedure: (§1) For HRV binding studies, COS cells were reseeded in a 24 well plate. One day later, the confluent monolayer was washed twice with 1 ml of RPMI 1640/10 mM MgCl2/25 mM Hepes pH 7.3 (rhinovirus-14 buffer). Transfected COS cells were labeled with 51Cr for binding to LFA-1 coated plastic as previously described (Staunton, D. E., et al., Nature 339:61-64 (1989). Immunoprecipitation and indirect immunofluorescence was performed using ICAM-1 MAb RR1/1 (Rothlein, R., et al., J. Immunol. 137:1270-1274 (1986)), R6.5 (Rothlein, R., et al., J. Immunol. 141:1665-1669 (1988)), LB-1 (Clark, E. A., et al., Hum. Immunol. 16:100-113 (1986)) and CL203 (Maio, M., J. Immunol. 143:181-188 (1989), all of which references are incorporated herein by reference).
(§2) Binding of RR1, R6.5, and LB-2 mAb was normalized to binding of CL203 mAb using Specific Linear Fluorescence Intensity (SLFI): % CL203=(mAbSLFI)×100)/CL203mABSLFI
(§3) In Table 25, the notation for the mutations uses the one-letter code for the wild-type sequence followed by a slash and the one-letter code for the corresponding mutant sequence. The position of the first amino acid within the sequence is indicated. Wild type residues precede the slash followed by the residues they were substituted for in the mutant. COS cells expressing ICAM-1 mutants were tested for adherence to LFA-1 coated plastic and for binding 35S met-labeled HRV14. LFA-1 and HRV14 binding is normalized for percent of cells expressing mutant ICAM-1 and for binding of wild type expressing cells. Binding is presented as mean and standard error (SE) for multiple experiments (n). Effects of two-fold or greater were reproducible in LFA-1, HRV and mAb binding assays and thus considered significant (bold and underlined). The specific linear fluorescence intensity (SLFI) of CL203 for each mutant is normalized to that of wild type CL203 SLFI (% WT) as discussed above. The SLFI of RR1/1, R6.5 and LB-2 SLFI is normalized to the CL203 SLFI of the mutant (% CL203) as described above.

R6.5 mAb = experiment: Indirect immunofluorescence flow cytofluorometry: mAb R6.5 binding to COS cells expressing ICAM-1 mutants (SLFI, % CL203); format: cell-based; details: SLFI normalized to CL203 SLFI of the mutant
Procedure: as §1, §2, §3

RR1/1 mAb = experiment: Indirect immunofluorescence flow cytofluorometry: mAb RR1/1 binding to COS cells expressing ICAM-1 mutants (SLFI, % CL203); format: cell-based; details: SLFI normalized to CL203 SLFI of the mutant
Procedure: as §1, §2, §3

LFA-1 = target: T1, LFA-1 (Homo sapiens, UniProt P05107+P20701); experiment: Adherence of COS cells expressing ICAM-1 or ICAM-1 mutants to plastic-bound purified LFA-1; format: cell-based; details: for LFA-1 Binding %: COS cells expressing ICAM-1 mutant adhering to LFA-1 coated plastic, normalized for percent of cells expressing mutant and for wild type binding, mean; for LFA-1 binding of ICAM-1 mutant (in words): COS cells expressing the mutant, relative to wild type
T1 construct: endogenous in cells
T1 sequence (P20701 26-1170): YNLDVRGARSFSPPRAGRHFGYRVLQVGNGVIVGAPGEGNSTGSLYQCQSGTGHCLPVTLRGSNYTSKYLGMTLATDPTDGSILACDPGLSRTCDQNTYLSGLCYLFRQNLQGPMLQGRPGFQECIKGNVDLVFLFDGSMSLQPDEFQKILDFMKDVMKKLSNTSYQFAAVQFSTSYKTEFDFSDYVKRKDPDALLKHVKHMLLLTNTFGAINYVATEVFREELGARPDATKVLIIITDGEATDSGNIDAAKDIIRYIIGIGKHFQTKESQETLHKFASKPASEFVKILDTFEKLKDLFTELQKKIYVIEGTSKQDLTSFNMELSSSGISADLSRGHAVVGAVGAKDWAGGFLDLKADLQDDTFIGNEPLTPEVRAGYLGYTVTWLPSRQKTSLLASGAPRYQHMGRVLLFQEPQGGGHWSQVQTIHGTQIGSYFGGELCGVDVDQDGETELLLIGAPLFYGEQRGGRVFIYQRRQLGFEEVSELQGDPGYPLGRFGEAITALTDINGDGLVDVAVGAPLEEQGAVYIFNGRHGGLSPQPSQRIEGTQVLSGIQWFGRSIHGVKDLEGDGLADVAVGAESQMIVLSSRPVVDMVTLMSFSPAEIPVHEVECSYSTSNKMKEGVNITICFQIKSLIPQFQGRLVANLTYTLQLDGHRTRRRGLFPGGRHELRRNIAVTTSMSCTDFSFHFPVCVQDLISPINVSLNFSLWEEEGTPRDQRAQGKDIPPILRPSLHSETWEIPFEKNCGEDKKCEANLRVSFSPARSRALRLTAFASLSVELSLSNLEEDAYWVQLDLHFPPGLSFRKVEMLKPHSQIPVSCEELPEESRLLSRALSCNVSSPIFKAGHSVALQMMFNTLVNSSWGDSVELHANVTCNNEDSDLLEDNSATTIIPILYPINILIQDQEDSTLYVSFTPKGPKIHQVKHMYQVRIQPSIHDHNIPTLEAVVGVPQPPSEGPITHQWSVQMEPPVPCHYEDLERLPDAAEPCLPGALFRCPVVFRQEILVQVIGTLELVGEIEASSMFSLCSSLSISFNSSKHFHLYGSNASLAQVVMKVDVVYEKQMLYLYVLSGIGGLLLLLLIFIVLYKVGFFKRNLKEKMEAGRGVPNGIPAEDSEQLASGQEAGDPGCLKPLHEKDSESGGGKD
T1 sequence (P05107 23-769): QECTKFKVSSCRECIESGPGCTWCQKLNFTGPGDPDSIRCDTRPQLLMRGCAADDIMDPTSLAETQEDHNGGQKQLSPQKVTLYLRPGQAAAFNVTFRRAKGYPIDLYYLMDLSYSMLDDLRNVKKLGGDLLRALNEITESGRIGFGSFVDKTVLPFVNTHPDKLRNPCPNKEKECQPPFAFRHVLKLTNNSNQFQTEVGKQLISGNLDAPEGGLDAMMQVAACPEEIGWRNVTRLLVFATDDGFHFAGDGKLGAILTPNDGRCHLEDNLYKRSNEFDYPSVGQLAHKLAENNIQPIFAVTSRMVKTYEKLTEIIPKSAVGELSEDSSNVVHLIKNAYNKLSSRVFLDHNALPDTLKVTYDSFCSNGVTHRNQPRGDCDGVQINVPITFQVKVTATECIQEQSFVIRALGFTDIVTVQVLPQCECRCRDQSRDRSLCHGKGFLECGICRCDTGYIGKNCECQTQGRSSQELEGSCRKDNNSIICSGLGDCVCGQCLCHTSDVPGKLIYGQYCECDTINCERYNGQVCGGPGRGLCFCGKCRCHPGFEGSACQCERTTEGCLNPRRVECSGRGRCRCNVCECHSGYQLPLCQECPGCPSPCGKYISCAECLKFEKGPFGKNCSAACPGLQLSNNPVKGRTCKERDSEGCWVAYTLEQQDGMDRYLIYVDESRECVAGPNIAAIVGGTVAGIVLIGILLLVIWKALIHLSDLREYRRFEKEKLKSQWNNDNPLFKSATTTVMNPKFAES

LB-2 mAb = experiment: Indirect immunofluorescence flow cytofluorometry: mAb LB-2 binding to COS cells expressing ICAM-1 mutants (SLFI, % CL203); format: cell-based; details: SLFI normalized to CL203 SLFI of the mutant
Procedure: as §1, §2, §3

[1] = COS cells expressing the mutant, relative to wild type

| Molecule | HRV Binding % (HRV14) [%] | Cl203 % WT (SLFI) (CL203 mAb) [% WT] | SLFI (% CL203) R6.5 (R6.5 mAb) [% CL203] | SLFI (% CL203) RR/1 (RR1/1 mAb) [% CL203] | LFA-1 Binding % (LFA-1) [%] | LFA-1 binding of ICAM-1 mutant (in words) (LFA-1) | SLFI (% CL203) LB-2 (LB-2 mAb) [% CL203] | HRV14 binding of ICAM-1 mutant (in words) (HRV14; [1]) | decrease in HRV14 binding (HRV14; [1]) [fold] | LFA-1 binding of ICAM-1 mutant (in words) (LFA-1; listed as E34) |
| --- | --- | --- | --- | --- | --- | --- | --- | --- | --- | --- |
| V4/G: ICAM-1 mutant, replacement of V4 with G (protein, UniProt P05362 28-532, looked up, variant V4G) Intercellular adhesion …: QTSGSPSKVILPRGGSVLVTCSTSCDQPKLLGIETPLPKKELLLPGNNRKVYELSNVQEDSQPMCYSNCPDGQSTAKTFLTVYWTPERVELAPLPSWQPVGKNLTLRCQVEGGAPRANLTVVLLRGEKELKREPAVGEPAEVTTTVLVRRDHHGANFSCRTELDLRPQGLELFENTSAPYQLQTFVLPATPPQLVSPRVLEVDTQGTVVCSLDGLFPVSEAQVHLALGDQRLNPTVTYGNDSFSAKASVSVTAEDEGTQRLTCAVILGNQSQETLQTVTIYSFPAPNVILTKPEVSEGTEVTVKCEAHPRAKVTLNGVPAQPLGPRAQLLLKATPEDNGRSFSCSATLEVAGQLIHKNQTRELRVLYGPRLDERDCPGNWTWPENSQQTPMCQAWGNPLPELKCLKDGTFPLPIGESVTVTRDLEGTYLCRARSTQGEVTRKVTVNVLSPRYEIVIITVVAAAVIMGTAGLSTYLYNRQRKIKKYRLQQAQKGTPMKPNTQATPP | 30 | 111 | 73 | 47 | 64 | less able to bind to LFA-1 | 58 |  |  |  |
| E34/A: ICAM-1 substitution mutant, E34 replaced with A (protein, UniProt P05362 28-532, looked up, variant E34A) Intercellular adhesion …: QTSVSPSKVILPRGGSVLVTCSTSCDQPKLLGIATPLPKKELLLPGNNRKVYELSNVQEDSQPMCYSNCPDGQSTAKTFLTVYWTPERVELAPLPSWQPVGKNLTLRCQVEGGAPRANLTVVLLRGEKELKREPAVGEPAEVTTTVLVRRDHHGANFSCRTELDLRPQGLELFENTSAPYQLQTFVLPATPPQLVSPRVLEVDTQGTVVCSLDGLFPVSEAQVHLALGDQRLNPTVTYGNDSFSAKASVSVTAEDEGTQRLTCAVILGNQSQETLQTVTIYSFPAPNVILTKPEVSEGTEVTVKCEAHPRAKVTLNGVPAQPLGPRAQLLLKATPEDNGRSFSCSATLEVAGQLIHKNQTRELRVLYGPRLDERDCPGNWTWPENSQQTPMCQAWGNPLPELKCLKDGTFPLPIGESVTVTRDLEGTYLCRARSTQGEVTRKVTVNVLSPRYEIVIITVVAAAVIMGTAGLSTYLYNRQRKIKKYRLQQAQKGTPMKPNTQATPP | 66 | 132 | 150 | 142 | 0 | completely eliminates LFA-1 binding; also recorded: totally eliminates LFA-1 binding | 142 | weak or a non-detectable affect on HRV binding | 2 | substantially less capacity to bind LFA-1 |
| Q58/H: ICAM-1 substitution mutant, Q58 replaced with H (protein, UniProt P05362 28-532, looked up, variant Q58H) Intercellular adhesion …: QTSVSPSKVILPRGGSVLVTCSTSCDQPKLLGIETPLPKKELLLPGNNRKVYELSNVHEDSQPMCYSNCPDGQSTAKTFLTVYWTPERVELAPLPSWQPVGKNLTLRCQVEGGAPRANLTVVLLRGEKELKREPAVGEPAEVTTTVLVRRDHHGANFSCRTELDLRPQGLELFENTSAPYQLQTFVLPATPPQLVSPRVLEVDTQGTVVCSLDGLFPVSEAQVHLALGDQRLNPTVTYGNDSFSAKASVSVTAEDEGTQRLTCAVILGNQSQETLQTVTIYSFPAPNVILTKPEVSEGTEVTVKCEAHPRAKVTLNGVPAQPLGPRAQLLLKATPEDNGRSFSCSATLEVAGQLIHKNQTRELRVLYGPRLDERDCPGNWTWPENSQQTPMCQAWGNPLPELKCLKDGTFPLPIGESVTVTRDLEGTYLCRARSTQGEVTRKVTVNVLSPRYEIVIITVVAAAVIMGTAGLSTYLYNRQRKIKKYRLQQAQKGTPMKPNTQATPP | 1 | 135 | 107 | 93 | 109 | substantially normal capacity to bind LFA-1 | 93 | virtually eliminated HRV14 binding |  |  |
| R13/E: ICAM-1 mutant, replacement of R13 with E (protein, UniProt P05362 28-532, looked up, variant R13E) Intercellular adhesion …: QTSVSPSKVILPEGGSVLVTCSTSCDQPKLLGIETPLPKKELLLPGNNRKVYELSNVQEDSQPMCYSNCPDGQSTAKTFLTVYWTPERVELAPLPSWQPVGKNLTLRCQVEGGAPRANLTVVLLRGEKELKREPAVGEPAEVTTTVLVRRDHHGANFSCRTELDLRPQGLELFENTSAPYQLQTFVLPATPPQLVSPRVLEVDTQGTVVCSLDGLFPVSEAQVHLALGDQRLNPTVTYGNDSFSAKASVSVTAEDEGTQRLTCAVILGNQSQETLQTVTIYSFPAPNVILTKPEVSEGTEVTVKCEAHPRAKVTLNGVPAQPLGPRAQLLLKATPEDNGRSFSCSATLEVAGQLIHKNQTRELRVLYGPRLDERDCPGNWTWPENSQQTPMCQAWGNPLPELKCLKDGTFPLPIGESVTVTRDLEGTYLCRARSTQGEVTRKVTVNVLSPRYEIVIITVVAAAVIMGTAGLSTYLYNRQRKIKKYRLQQAQKGTPMKPNTQATPP | 10 | 202 | 48 | 4 | 1 | substantially less capacity to bind LFA-1 | 4 |  |  |  |
| N103/K: ICAM-1 mutant, replacement of N103 with K (protein, UniProt P05362 28-532, looked up, variant N103K) Intercellular adhesion …: QTSVSPSKVILPRGGSVLVTCSTSCDQPKLLGIETPLPKKELLLPGNNRKVYELSNVQEDSQPMCYSNCPDGQSTAKTFLTVYWTPERVELAPLPSWQPVGKKLTLRCQVEGGAPRANLTVVLLRGEKELKREPAVGEPAEVTTTVLVRRDHHGANFSCRTELDLRPQGLELFENTSAPYQLQTFVLPATPPQLVSPRVLEVDTQGTVVCSLDGLFPVSEAQVHLALGDQRLNPTVTYGNDSFSAKASVSVTAEDEGTQRLTCAVILGNQSQETLQTVTIYSFPAPNVILTKPEVSEGTEVTVKCEAHPRAKVTLNGVPAQPLGPRAQLLLKATPEDNGRSFSCSATLEVAGQLIHKNQTRELRVLYGPRLDERDCPGNWTWPENSQQTPMCQAWGNPLPELKCLKDGTFPLPIGESVTVTRDLEGTYLCRARSTQGEVTRKVTVNVLSPRYEIVIITVVAAAVIMGTAGLSTYLYNRQRKIKKYRLQQAQKGTPMKPNTQATPP | 13 | 91 | 60 | 17 | 12 | substantially incapable of binding LFA-1 | 22 |  |  |  |
